Measurements: patent US8450284B2, “Coiled-coil lipopeptide helical bundles and synthetic virus-like particles” (Universitaet Zuerich, priority 2006, dated 2013)
Where “and” joins values, the source holds several entries; their conditions need not be identical. Equal entries are not always repeated. Ends that are not written are not given here.

Key:
Rabbits [1] = experiment: Immunization of rabbits, ELISA cross-reaction with the same antigen attached to a different LBB (Table 2); assay type: in vivo, rabbit; details: for Endpoint titers (log10) 3°: after second booster
Experimental: (§1) Rabbits (groups of two) were each immunized with 150 μg of one conjugate, reconstituted and equilibrated for at least 1 h at r.t. in either 400 μl PBS (10 mM sodium phosphate, 154 mM NaCl, pH 7.2), or with Freund's adjuvant (Freund's complete adjuvant (FA) for primary and Freund's incomplete adjuvant (FIA) for booster immunizations). Immunizations were performed on days 0, 28 and 56. Sera were collected on days 14, 38 and 66. The sera were analyzed by enzyme-linked immunosorbent assay (ELISA), to detect antibodies that bind to the conjugates used for immunizations.
The specificity of each hapten specific immune response was also analyzed by ELISA (Table 2). Here the ability of antibodies elicited by each conjugate to cross-react with the same antigen attached to a different LBB was measured.
(§2) ELISA microtiter-plates (Nunc Immunoplates Polysorb F96) were coated overnight with a 5 μg/ml solution of each antigen in PBS. The wells were then washed with PBS containing 0.05% Tween 20 (PBST) and blocked with PBS containing 5% skimmed milk powder for 1 h at r.t. After blocking, the wells were washed three times with PBST and incubated with serial dilutions of rabbit serum in PBS containing 0.05% Tween 20 and 0.5% skimmed milk powder (MPBST) for 2.5 h at r.t., followed by three washes with PBST. The plates were then incubated with alkaline phosphatase-conjugated mouse anti-rabbit IgG antibody (Sigma), diluted 1:20000 in MPBST for 1 h at r.t., washed again three times with PBST and incubated in the dark with a 1 mg/ml solution of p-nitrophenyl phosphate (Sigma) in substrate buffer (50 mM sodium carbonate buffer, 1 mM MgCl2, pH 9.6) at r.t. The absorbance was read after an appropriate time at 405 nm using a Bio-Rad Model 3550 microplate reader.

Rabbits [2] = experiment: Immunization of rabbits, ELISA for antibodies binding the conjugate used for immunization (Table 1); assay type: in vivo, rabbit; details: 150 μg conjugate, ELISA on the immunogen; for log10 (Endpoint titers) 2°: after first booster (serum day 38); for log10 (Endpoint titers) 3°: after second booster (serum day 66), rabbits in groups of two, each group given one conjugate
Experimental: as §1, §2

[3] = Far UV circular dichroism spectroscopy (CONTIN analysis, thermal denaturation); assay type: physicochemical
Experimental: Far ultraviolet circular dichroism (CD) spectra were measured at r.t. using a Jasco J-715 spectropolarimeter and a 0.1 cm path length quartz cell. Peptide 5 solution (50 μM) and lipopeptide 4 solution (35.7 μM) were prepared in TRIS buffer (10 mM TrisHCl, 90 mM NaCl, pH 7.4) and concentrations were determined by phosphate or amino acid analysis, as appropriate. Scan speeds of 10-100 nm/min, 1-2 second response times and a 1 nm spectral bandwidth were employed and spectra were collected at a minimum resolution of 0.5 nm. After subtraction of the blank, the spectral values were reported as mean residue ellipticity [deg. cm^2/dmol] and the lipid moiety was ignored when calculating the mean residue molecular weight.
CD spectra of low concentration samples of lipopeptide 4 (2-40 μM) were measured at 20° C. with a Jasco J-810 spectropolarimeter using a 1 cm path length quartz cell. Lipopeptide solutions were prepared in PBS (10 mM Na2HPO4, 90 mM NaCl, pH 7.4) and concentrations were determined by phosphate analysis. Scan speeds of 10 nm/min, 4 second response time and a 2 nm spectral bandwidth were employed and spectra were collected at a minimum resolution of 0.5 nm. Data were elaborated as described above.

[4] = far UV CD at room temperature, FIG. 6

In the case of “LBB6-LY-CH: conjugate of lipopeptide 6 with LY-CH-HMB (GGAVSKVLHLEGEVNKIKSALLSTNKAVVSLSNGVSVLTSKVLDLKNYIDKQC; also: conjugate of lipopeptide 6 with LY-CH-HMB)”, the “Endpoint titers (log10) 3°” value (Rabbits [1]; ELISA antigen LBB7-LY-CH) is reported as 5.41 and 5.71, the “log10 (Endpoint titers) 2°” value (Rabbits [2]; two rabbits (a, b)) is reported as 5.11 and the “log10 (Endpoint titers) 1°” value (Rabbits [2]; after primary immunization (serum day 14), two rabbits (a, b)) is reported as 3.90 and 4.20.

For “LBB7-LY-CH: conjugate of lipopeptide 7 with LY-CH-HMB (SGIKKEIEAIKKEQEAIKKKIEAIERMLQLTVWGIKQLQARVLAVERYLGDCG; also: conjugate of lipopeptide 7 with LY-CH-HMB)”, the “Endpoint titers (log10) 2°” value (Rabbits [1]; ELISA antigen LBB6-LY-CH, after first booster) was 5.01 and 4.71, the “Endpoint titers (log10) 3°” value (Rabbits [1]; ELISA antigen LBB6-LY-CH) was 5.01 and the “log10 (Endpoint titers) 3°” value (Rabbits [2]) was 4.41 and 4.11.

In the case of “peptide 5: same peptide sequence as lipopeptide 4 but lacks the phospholipid and linker (GGAVSKVLHLEGEVNKIKSALLSTNKAVVSLSNGVSVLTSKVLDLKNYIDKQ; derived from RSV F glycoprotein)”, the “aperiodic structure content (CONTIN)” value [3, 4] is reported as 42%, the “β-sheet content (CONTIN)” value [3, 4] is reported as 25% and the “α-helix content (CONTIN)” value ([3]; far UV CD at room temperature, pH 7.4, FIG. 6) is reported as 33%. The “mid point of thermal denaturation transition” value ([3]; peptide concentration 35 μM) was roughly 40 °C.

B1: LBB7-12: conjugate of lipopeptide 7 with peptide 12 (conjugate)
chain: SGIKKEIEAIKKEQEAIKKKIEAIERMLQLTVWGIKQLQARVLAVERYLGDCG
peptide: NCRKSIHIGPGRAFYTTGCG
modifications: cyclised or stapled
For B1, the “Endpoint titers (log10) 1°” value (Rabbits [1]; ELISA antigen LBB6-12, after primary immunization) was less than 1.70, the “log10 (Endpoint titers) 2°” value (Rabbits [2]; two rabbits (a, b)) was 4.41 and 4.11 and the “log10 (Endpoint titers) 3°” value (Rabbits [2]) was 4.41 and 4.11.

B2: LBB6-12: conjugate of lipopeptide 6 with peptide 12 (conjugate)
chain: GGAVSKVLHLEGEVNKIKSALLSTNKAVVSLSNGVSVLTSKVLDLKNYIDKQC
peptide: NCRKSIHIGPGRAFYTTGCG
modifications: cyclised or stapled
With B2 the “log10 (Endpoint titers) 3°” value (Rabbits [2]) was 5.01 and 4.71.
